From publication PMC8041869

How the values were obtained:
[1] = target: SARS-CoV-2 S-protein receptor-binding domain (SARS-CoV-2) (UniProt P0DTC2); experiment: BLI
[2] = target: SARS-CoV-2 S-protein receptor-binding domain (SARS-CoV-2) (UniProt P0DTC2); experiment: ELISA

Substance: human ACE2 extracellular domain, E37K variant, Fc-tagged dimeric form (from UniProt Q9BYF1-1 18-615) (Fc fusion)
- Kd [1]: 22.7 nM
- EC50 [2]: 15.8 nM
